This note sets out measurements from patent publication US20060257938A1, “Method of screening for drugs that block ligand binding to a lipid binding protein” (priority 2005, published 2006).

Common to all, as to type: binding
A short description of test [1]: Probe fluorescence ratio response to linolenic acid relative to ADIFAB2. As to conditions: response relative to ADIFAB2. In outline: (§1)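 Each fatty acid's response was expressed relative to ADIFAB2, the rI-FABP-L72A probe, as ΔR/ΔRreference. ΔR is the change in the background-corrected two-wavelength intensity ratio R=Fλ1/Fλ2 from its analyte-free baseline R0. Emission was read near about 420-480 nm for unbound and about 495-580 nm for FFA-bound probe.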

A short description of test [2]: Probe fluorescence ratio response to palmitoleic acid relative to ADIFAB2. As to conditions: response relative to ADIFAB2. In outline:
as §1

Test [3] is described as follows: Probe fluorescence ratio response to stearic acid relative to ADIFAB2. The note with it: response relative to ADIFAB2. The method in brief: as §1
Test [4] is described as follows: Probe fluorescence ratio response to linoleic acid relative to ADIFAB2. As to conditions: response relative to ADIFAB2. The method in brief: as §1
Test [5] in a line: Probe fluorescence ratio response to arachidonic acid relative to ADIFAB2. As to conditions: arachidonic acid; response relative to ADIFAB2. The method in brief: as §1
Test [6] can be described thus: Probe fluorescence ratio response to palmitic acid relative to ADIFAB2. As to conditions: response relative to ADIFAB2. In outline: as §1
The nature of test [7]: Probe fluorescence ratio response to oleic acid relative to ADIFAB2. As to conditions: response relative to ADIFAB2. In outline:
as §1

B1: 18V 31F 55L 72A (protein, listed as Rattus norvegicus)
chain: AFDGTWKVDRNENYEKFVEKMGINVVKRKLFAHDNLKLTITQEGNKFTVKESSNLRNIDVVFELGVDFAYSAADGTELTGTWTMEGNKLVGKFKRVDNGKELIAVREISGNELIQTYTYEGVEAKRIFKKE
modifications: PEPTIDE (1)...(131) wild-type rat intestinal fatty acid binding protein
With B1, the “DR/DR LNA” value in test [1] is reported as 1.180. Also, in test [2], the “DR/DR POA” value is on record as 1.353. The “DR/DR SA” value in test [3] stood at 0.358. In test [4], the “DR/DR LA” value was 0.996. In addition, the “DR/DR AA” value in test [5] is 0.921. Further, the “DR/DR PA” value in test [6] is 1.035. Further, in test [7], the “DR/DR OA” value was 0.649.

B2: 74Q 72A 73F (protein, listed as Rattus norvegicus)
chain: AFDGTWKVDRNENYEKFMEKMGINVVKRKLGAHDNLKLTITQEGNKFTVKESSNFRNIDVVFELGVDFAYSAFQGTELTGTWTMEGNKLVGKFKRVDNGKELIAVREISGNELIQTYTYEGVEAKRIFKKE
modifications: PEPTIDE (1)...(131) wild-type rat intestinal fatty acid binding protein
For B2, the “DR/DR LNA” value in test [1] is 1.025. Besides, the “DR/DR POA” value in test [2] came to 1.479. Further, the “DR/DR SA” value in test [3] is 0.177. The “DR/DR LA” value in test [4] came to 0.711. Moreover, in test [5], the “DR/DR AA” value is listed as 0.465. For the same molecule, the “DR/DR PA” value in test [6] turned out to be 0.649. The “DR/DR OA” value in test [7] stood at 0.390.

B3: 18V 31A 55I 72A (protein, listed as Rattus norvegicus)
chain: AFDGTWKVDRNENYEKFVEKMGINVVKRKLAAHDNLKLTITQEGNKFTVKESSNIRNIDVVFELGVDFAYSAADGTELTGTWTMEGNKLVGKFKRVDNGKELIAVREISGNELIQTYTYEGVEAKRIFKKE
modifications: PEPTIDE (1)...(131) wild-type rat intestinal fatty acid binding protein
As for B3, the “DR/DR LNA” value in test [1] came to 1.580. Moreover, the “DR/DR POA” value in test [2] stood at 1.563. Also, the “DR/DR SA” value in test [3] was 0.420. Also, the “DR/DR LA” value in test [4] came to 1.334. Also, the “DR/DR AA” value in test [5] stood at 0.989. In addition, the “DR/DR PA” value in test [6] came to 1.280. Besides, in test [7], the “DR/DR OA” value was 0.791.

B4: 14M 18L 31W 73I 117G 72A (protein, listed as Rattus norvegicus)
chain: AFDGTWKVDRNENMEKFLEKMGINVVKRKLWAHDNLKLTITQEGNKFTVKESSNFRNIDVVFELGVDFAYSAIDGTELTGTWTMEGNKLVGKFKRVDNGKELIAVREISGNELIQTGTYEGVEAKRIFKKE
modifications: PEPTIDE (1)...(131) wild-type rat intestinal fatty acid binding protein
For the molecule B4, in test [1], the “DR/DR LNA” value was 1.869. For the same molecule, the “DR/DR POA” value in test [2] worked out at 1.569. Besides, the “DR/DR SA” value in test [3] is listed as 0.487. Moreover, the “DR/DR LA” value in test [4] is given as 2.034. Further, the “DR/DR AA” value in test [5] is reported as 2.032. In addition, the “DR/DR PA” value in test [6] was found to be 0.998. The “DR/DR OA” value in test [7] turned out to be 1.712.

B5: 72E 73V 74A (protein, listed as Rattus norvegicus)
chain: AFDGTWKVDRNENYEKFMEKMGINVVKRKLGAHDNLKLTITQEGNKFTVKESSNFRNIDVVFELGVDFAYSEVAGTELTGTWTMEGNKLVGKFKRVDNGKELIAVREISGNELIQTYTYEGVEAKRIFKKE
modifications: PEPTIDE (1)...(131) wild-type rat intestinal fatty acid binding protein
As to B5, in test [1], the “DR/DR LNA” value was determined as 0.784. In addition, the “DR/DR POA” value in test [2] is on record as 1.093. Moreover, in test [3], the “DR/DR SA” value is recorded as 0.234. In test [4], the “DR/DR LA” value amounted to 0.735. The “DR/DR AA” value in test [5] came to 0.478. For the same molecule, the “DR/DR PA” value in test [6] came out at 0.736. The “DR/DR OA” value in test [7] is on record as 0.524.

B6: 72T 73G 74I (protein, listed as Rattus norvegicus)
chain: AFDGTWKVDRNENYEKFMEKMGINVVKRKLGAHDNLKLTITQEGNKFTVKESSNFRNIDVVFELGVDFAYSTGIGTELTGTWTMEGNKLVGKFKRVDNGKELIAVREISGNELIQTYTYEGVEAKRIFKKE
modifications: PEPTIDE (1)...(131) wild-type rat intestinal fatty acid binding protein
As to B6, the “DR/DR LNA” value in test [1] stood at 2.317. The “DR/DR POA” value in test [2] turned out to be 2.771. The “DR/DR SA” value in test [3] is given as 1.755. In addition, in test [4], the “DR/DR LA” value was determined as 2.577. In addition, the “DR/DR AA” value in test [5] was 2.226. In addition, the “DR/DR PA” value in test [6] stood at 2.177. Further, in test [7], the “DR/DR OA” value amounted to 2.414.

B7: 72A 73P 74E (protein, listed as Rattus norvegicus)
chain: AFDGTWKVDRNENYEKFMEKMGINVVKRKLGAHDNLKLTITQEGNKFTVKESSNFRNIDVVFELGVDFAYSAPEGTELTGTWTMEGNKLVGKFKRVDNGKELIAVREISGNELIQTYTYEGVEAKRIFKKE
modifications: PEPTIDE (1)...(131) wild-type rat intestinal fatty acid binding protein
Take B7: in test [1], the “DR/DR LNA” value stood at 1.863. Further, the “DR/DR POA” value in test [2] was found to be 2.087. For the same molecule, in test [3], the “DR/DR SA” value is on record as 1.512. For the same molecule, in test [4], the “DR/DR LA” value came to 1.741. Besides, the “DR/DR AA” value in test [5] was determined as 1.975. Moreover, the “DR/DR PA” value in test [6] is reported as 1.732. In addition, in test [7], the “DR/DR OA” value is 1.802.

B8: 18I 31M 55M 72A (protein, listed as Rattus norvegicus)
chain: AFDGTWKVDRNENYEKFIEKMGINVVKRKLMAHDNLKLTITQEGNKFTVKESSNMRNIDVVFELGVDFAYSAADGTELTGTWTMEGNKLVGKFKRVDNGKELIAVREISGNELIQTYTYEGVEAKRIFKKE
modifications: PEPTIDE (1)...(131) wild-type rat intestinal fatty acid binding protein
Turning to B8, in test [1], the “DR/DR LNA” value is given as 1.358. The “DR/DR POA” value in test [2] came out at 1.353. The “DR/DR SA” value in test [3] amounted to 0.296. Besides, the “DR/DR LA” value in test [4] is on record as 1.134. Besides, in test [5], the “DR/DR AA” value is on record as 1.010. In addition, in test [6], the “DR/DR PA” value was 1.099. For the same molecule, the “DR/DR OA” value in test [7] is listed as 0.601.

B9: 72S 73V 74A (protein, listed as Rattus norvegicus)
chain: AFDGTWKVDRNENYEKFMEKMGINVVKRKLGAHDNLKLTITQEGNKFTVKESSNFRNIDVVFELGVDFAYSSVAGTELTGTWTMEGNKLVGKFKRVDNGKELIAVREISGNELIQTYTYEGVEAKRIFKKE
modifications: PEPTIDE (1)...(131) wild-type rat intestinal fatty acid binding protein
For B9, in test [1], the “DR/DR LNA” value is reported as 2.330. Further, in test [2], the “DR/DR POA” value stood at 2.727. For the same molecule, the “DR/DR SA” value in test [3] is reported as 1.572. For the same molecule, in test [4], the “DR/DR LA” value is listed as 2.397. The “DR/DR AA” value in test [5] was 2.127. Moreover, the “DR/DR PA” value in test [6] came out at 2.601. The “DR/DR OA” value in test [7] came to 2.295.

B10: 18I 31V 55V 73V 72A (protein, listed as Rattus norvegicus)
chain: AFDGTWKVDRNENYEKFIEKMGINVVKRKLVAHDNLKLTITQEGNKFTVKESSNVRNIDVVFELGVDFAYSAVDGTELTGTWTMEGNKLVGKFKRVDNGKELIAVREISGNELIQTYTYEGVEAKRIFKKE
modifications: PEPTIDE (1)...(131) wild-type rat intestinal fatty acid binding protein
As to B10, the “DR/DR LNA” value in test [1] is reported as 1.179. Further, the “DR/DR POA” value in test [2] is 1.236. The “DR/DR SA” value in test [3] turned out to be 0.233. In addition, the “DR/DR LA” value in test [4] is 0.853. The “DR/DR AA” value in test [5] is given as 0.632. The “DR/DR PA” value in test [6] is 0.974. Further, in test [7], the “DR/DR OA” value is 0.448.

B11: 72S 74A (protein, listed as Rattus norvegicus)
chain: AFDGTWKVDRNENYEKFMEKMGINVVKRKLGAHDNLKLTITQEGNKFTVKESSNFRNIDVVFELGVDFAYSSAAGTELTGTWTMEGNKLVGKFKRVDNGKELIAVREISGNELIQTYTYEGVEAKRIFKKE
modifications: PEPTIDE (1)...(131) wild-type rat intestinal fatty acid binding protein
As to B11, in test [1], the “DR/DR LNA” value was 2.002. The “DR/DR POA” value in test [2] was found to be 2.034. The “DR/DR SA” value in test [3] stood at 1.114. Further, the “DR/DR LA” value in test [4] is reported as 2.037. Besides, the “DR/DR AA” value in test [5] is 1.648. In addition, the “DR/DR PA” value in test [6] was found to be 1.615. Further, in test [7], the “DR/DR OA” value was 1.575.

B12: 72T 73I 74A (protein, listed as Rattus norvegicus)
chain: AFDGTWKVDRNENYEKFMEKMGINVVKRKLGAHDNLKLTITQEGNKFTVKESSNFRNIDVVFELGVDFAYSTIAGTELTGTWTMEGNKLVGKFKRVDNGKELIAVREISGNELIQTYTYEGVEAKRIFKKE
modifications: PEPTIDE (1)...(131) wild-type rat intestinal fatty acid binding protein
In the case of B12, the “DR/DR LNA” value in test [1] turned out to be 1.944. Further, the “DR/DR POA” value in test [2] is recorded as 2.320. Besides, in test [3], the “DR/DR SA” value turned out to be 1.359. For the same molecule, the “DR/DR LA” value in test [4] was 1.795. Also, the “DR/DR AA” value in test [5] was 2.148. Further, in test [6], the “DR/DR PA” value is reported as 1.687. Besides, the “DR/DR OA” value in test [7] is 1.721.

B13: 38Y 117A 72A (protein, listed as Rattus norvegicus)
chain: AFDGTWKVDRNENYEKFMEKMGINVVKRKLGAHDNLKYTITQEGNKFTVKESSNFRNIDVVFELGVDFAYSAADGTELTGTWTMEGNKLVGKFKRVDNGKELIAVREISGNELIQTATYEGVEAKRIFKKE
modifications: PEPTIDE (1)...(131) wild-type rat intestinal fatty acid binding protein
As for B13, the “DR/DR LNA” value in test [1] is 1.547. For the same molecule, the “DR/DR POA” value in test [2] was 0.839. Moreover, the “DR/DR SA” value in test [3] was 1.201. The “DR/DR LA” value in test [4] came out at 1.869. In test [5], the “DR/DR AA” value is listed as 2.216. Besides, the “DR/DR PA” value in test [6] came out at 0.933. The “DR/DR OA” value in test [7] was determined as 1.976.
